# Laboratory results reported in PMC9049628.
# B1: ShKAT (Salinicoccus halodurans) (protein)
# chain: MWQTKKFNELSLSEIEQIFRLRQSIFIIEQQSYFADIDGKDTEAIHIFNKENNIIWAYCRILIYDEKVILGRVTVHSDKRGNGNGRELLNTALKYLKENYPDKFVQIVAMSYLKDFYKSYGFKSISEVYIMDDHPHEDMILKH
# Substrate: NCCCC[C@H](N)C(=O)O
# Assay: purified protein
# Settings: 5 mM acetyl-CoA, 50 mM Tris-HCl pH 10.0, 40 °C, 0.65 mM DTNB
protein,measurement,value
B1,Km,1890 µM
